Each block holds one molecule with its values, some of them ahead of it. No end group written: not given here.
Legend:
RXFP3 = target: T1, RXFP3 (Homo sapiens, UniProt Q9NSD7); assay: Inhibition of forskolin-induced cAMP accumulation in RXFP3 expressing CHO-K1 cells (cAMP reporter gene assay); format: cell-based; settings: CHO-K1, read-out: forskolin-induced cAMP production inhibited to
T1 construct: expressed in transfected cells; host or cells: CHO-K1
T1 sequence (Q9NSD7 1-469): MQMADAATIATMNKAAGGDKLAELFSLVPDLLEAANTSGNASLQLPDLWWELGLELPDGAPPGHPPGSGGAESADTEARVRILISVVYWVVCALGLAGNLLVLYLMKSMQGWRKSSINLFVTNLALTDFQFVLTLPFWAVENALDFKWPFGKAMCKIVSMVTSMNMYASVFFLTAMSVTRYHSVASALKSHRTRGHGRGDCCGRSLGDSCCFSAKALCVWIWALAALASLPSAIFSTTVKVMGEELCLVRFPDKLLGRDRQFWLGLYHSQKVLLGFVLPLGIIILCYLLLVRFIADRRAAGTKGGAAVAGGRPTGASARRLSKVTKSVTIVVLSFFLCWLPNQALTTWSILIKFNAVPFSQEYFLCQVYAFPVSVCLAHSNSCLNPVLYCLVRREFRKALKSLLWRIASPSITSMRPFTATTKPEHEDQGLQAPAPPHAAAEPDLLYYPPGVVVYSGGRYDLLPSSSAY
Experimental: CHO-K1 cells were subcultured in clear 96 well plates (10,000 cells/well/200 μl media) and after 24 h, they were co-transfected with pCRE-8-galactosidase reporter plasmid. 24 hours later, cells were treated with 5 μM forskolin together with increasing concentration of relaxin-3 polypeptides. […] The stimulation was carried out for 6 h after which the media was aspirated and the cells were frozen at −80° C. overnight. The cells were thawed to room temperature and the amount of cAMP-induced β-galactosidase expression was measured by adding 25 μl of 0.1× buffer A (100 mM Na2HPO4 (pH 8.0), 2 mM MgSO4, 0.1 mM MnCl2) and shaking at room temperature for 10 minutes to hypotonically lyse the cells. Then 100 μl of buffer B (similar to buffer A with additional 0.5% Triton X-100 and 40 mM β-mercaptoethanol) was added to each well with shaking for 10 minutes at room temperature. Finally, 25 μl of substrate for 6-galactosidase (chlorophenol red β-D galactopyranoside) was added to each well with shaking until the colour change was observed. The absorbance was measured at 570 nm on Victor^3 plate reader (PerkinElmer, Glen Waverly, VIC). The data were analysed using GraphPad PRISM 4 (GraphPad Inc., San Diego, USA). […] Statistical analysis was carried out using one-way ANOVA with Bonferroni's multiple comparison test.

[1] = system: human dermal fibroblasts (BJ3 cells) which express RXFP1; assay: TGF-β1-induced collagen expression in human dermal fibroblasts (hydroxyproline content); format: cell-based; settings: TGF-β1 2 ng/mL plus peptide 100 ng/mL, 72 hr
Experimental: The deposited collagen into the cell layer was hydrolysed and analysed for hydroxyproline content, as previously described (Samuel et al., 1996, Endocrinology 137:3884-3890). Hydroxyproline values were then converted to total collagen content by multiplying by a factor of 6.94 (based on hydroxyproline representing approximately 14.4% of the amino acid composition of collagen in most mammalian tissues). These experiments were performed 3-4 separate times in duplicate.

RXFP1 receptor [2] = target: T2, RXFP1 receptor (UniProt Q9HBX9 1-757, limits assumed); assay: cell-based or functional assay
T2 sequence (looked up): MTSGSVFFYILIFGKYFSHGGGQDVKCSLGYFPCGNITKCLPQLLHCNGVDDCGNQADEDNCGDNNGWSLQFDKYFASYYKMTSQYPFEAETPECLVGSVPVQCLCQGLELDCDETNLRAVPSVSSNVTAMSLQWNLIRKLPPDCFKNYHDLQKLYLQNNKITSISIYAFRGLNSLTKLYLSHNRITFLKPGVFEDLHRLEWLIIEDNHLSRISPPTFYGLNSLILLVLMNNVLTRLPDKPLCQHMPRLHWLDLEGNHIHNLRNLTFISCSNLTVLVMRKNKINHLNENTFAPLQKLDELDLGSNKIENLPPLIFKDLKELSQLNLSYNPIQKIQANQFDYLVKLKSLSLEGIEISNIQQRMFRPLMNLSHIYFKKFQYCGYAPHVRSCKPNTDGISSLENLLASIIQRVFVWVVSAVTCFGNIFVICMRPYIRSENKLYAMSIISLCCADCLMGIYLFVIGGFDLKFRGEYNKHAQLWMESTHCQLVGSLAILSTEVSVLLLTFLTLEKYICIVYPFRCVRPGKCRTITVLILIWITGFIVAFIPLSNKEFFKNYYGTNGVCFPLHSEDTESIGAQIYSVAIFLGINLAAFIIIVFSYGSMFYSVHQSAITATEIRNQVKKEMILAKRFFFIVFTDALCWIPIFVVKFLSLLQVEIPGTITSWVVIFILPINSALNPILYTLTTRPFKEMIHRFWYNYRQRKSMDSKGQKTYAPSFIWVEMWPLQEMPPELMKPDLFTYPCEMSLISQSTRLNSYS

RXFP1 receptor [3] = target: T2, RXFP1 receptor; assay: competition with Eu-labelled H2 relaxin on HEK-293T cells expressing RXFP1
RXFP4 receptor [4] = target: T3, RXFP4 receptor (UniProt Q8TDU9 1-374, limits assumed); assay: cell-based or functional assay
T3 sequence (Q8TDU9 whole entry): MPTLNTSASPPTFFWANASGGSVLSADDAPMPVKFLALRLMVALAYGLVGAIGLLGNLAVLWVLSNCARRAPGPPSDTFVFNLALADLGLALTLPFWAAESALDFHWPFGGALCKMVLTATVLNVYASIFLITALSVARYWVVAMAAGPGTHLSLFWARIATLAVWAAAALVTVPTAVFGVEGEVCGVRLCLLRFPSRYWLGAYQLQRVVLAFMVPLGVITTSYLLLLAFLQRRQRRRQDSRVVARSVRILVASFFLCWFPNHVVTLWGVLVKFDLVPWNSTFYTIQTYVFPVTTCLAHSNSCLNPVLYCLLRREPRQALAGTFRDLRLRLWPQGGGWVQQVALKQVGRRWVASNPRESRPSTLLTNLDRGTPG

RXFP3 receptor [5] = target: T4, RXFP3 receptor (UniProt Q9NSD7 1-469, limits assumed); assay: cell-based or functional assay
T4 sequence (looked up): T1 sequence (Q9NSD7 1-469)

RXFP4 receptor [6] = target: T3, RXFP4 receptor; assay: competition with 2.5 nM Eu-labelled mouse INSL5 on CHO-K1 cells expressing RXFP4
RXFP3 receptor [7] = target: T4, RXFP3 receptor; assay: cell-based or functional assay; remark: listed apart in the source
RXFP3 receptor [8] = target: T4, RXFP3 receptor; assay: competition with 0.5 nM Eu-labelled INSL5A/H3 relaxinB on CHO-K1 cells expressing RXFP3

binding result (RXFP1 receptor [3]): no binding (tested: <5 (pIC50/pKi, M))
pEC50 (M), activation of RXFP4 (RXFP4 receptor [4]): 8.46 M (as -log10)
B1: analogue 19 (peptide)
chain 1: CKWGASKSEISSLC
chain 2: CGREFIRAVIFTCGGSRW
notes: Synthetic

binding result (RXFP1 receptor [3]): no binding (tested: <5 (pIC50/pKi, M))
pEC50, ERK1/2 phosphorylation in stable CHO-RXFP3 cells (AlphaScreen) (RXFP3 receptor [5]): 10.4 -log10 (M not printed)
pEC50 (M), activation of RXFP4 (RXFP4 receptor [4]): 7.7 M (as -log10)
pIC50 (RXFP4 receptor [6]): 7.1 M (as -log10)
B2: analogue 15 (peptide)
chain 1: CKWGASKSEISSLC
chain 2: RAAPYGVRLCGREFIRAVIFTCGGSRW
modifications: disulfide (positions not given here)
notes: Synthetic; two inter-chain disulphides, no intra-A-chain disulphide; also called [R3A(11-24,C15→A)B]; RXFP3-selective agonist, analogue 2

binding result (RXFP1 receptor [3]): no binding (tested: <5 (pIC50/pKi, M))
pEC50 (M), activation of RXFP4 (RXFP4 receptor [4]): 7.85 M (as -log10)
B3: analogue 17 (peptide)
chain 1: CKWGASKSEISSLC
chain 2: GVRLCGREFIRAVIFTCGGSRW
notes: Synthetic

binding result (RXFP1 receptor [3]): no binding (tested: <5 (pIC50/pKi, M))
pEC50 (M), activation of RXFP4 (RXFP4 receptor [4]): 8.1 M (as -log10)
B6: analogue 18 (peptide)
chain 1: CKWGASKSEISSLC
chain 2: RLCGREFIRAVIFTCGGSRW
notes: Synthetic

More lines, now with the values behind:

Molecule: CC[C@H](C)[C@@H]1NC(=O)[C@H](Cc2ccccc2)NC(=O)[C@H](CCC(=O)O)NC(=O)[C@H](CCCNC(=N)N)NC(=O)CNC(=O)[C@@H](NC(=O)[C@H](CC(C)C)NC(=O)[C@H](CCCNC(=N)N)NC(=O)[C@@H](NC(=O)CNC(=O)[C@H](Cc2ccc(O)cc2)NC(=O)[C@@H]2CCCN2C(=O)[C@H](C)NC(=O)[C@H](C)NC(=O)[C@@H](N)CCCNC(=N)N)C(C)C)CSSC[C@@H]2NC(=O)[C@@H](NC(=O)[C@H](CO)NC(=O)[C@H](CO)NC(=O)[C@H](CO)NC(=O)[C@H](CC(C)C)NC(=O)CNC(=O)[C@H](C)NC(=O)[C@H](CC(C)C)NC(=O)[C@@H](NC(=O)[C@@H](N)CC(=O)O)C(C)C)CSSC[C@H](NC(=O)CNC(=O)[C@H](Cc3c[nH]c4ccccc34)NC(=O)[C@H](CCCCN)NC2=O)C(=O)N[C@@H](CO)C(=O)N[C@@H](CCCCN)C(=O)N[C@@H](CO)C(=O)N[C@@H](CCC(=O)O)C(=O)N[C@@H]([C@@H](C)CC)C(=O)N[C@@H](CO)C(=O)N[C@@H](CO)C(=O)N[C@@H](CC(C)C)C(=O)N[C@H](C(=O)O)CSSC[C@@H](C(=O)NCC(=O)NCC(=O)N[C@@H](CO)C(=O)N[C@@H](CCCNC(=N)N)C(=O)N[C@@H](Cc2c[nH]c3ccccc23)C(=O)O)NC(=O)[C@H]([C@@H](C)O)NC(=O)[C@H](Cc2ccccc2)NC(=O)[C@H]([C@@H](C)CC)NC(=O)[C@H](C(C)C)NC(=O)[C@H](C)NC(=O)[C@H](CCCNC(=N)N)NC1=O [H3 relaxin]
activity at 0.01 µM (RXFP3): ~50%

Molecule: H2 relaxin: native human relaxin-2, cognate ligand of RXFP1 (chain 1 QLYSALANKCCHVGCTKRSLARFC; chain 2 DSWMEEVIKLCGRELVRAQIAICGMSTWS)
inhibition of TGF-β1 induced collagen compared to TGF-β1 alone [1]: 35%

Molecule: H2 relaxin (from UniProt P04090 162-185; P04090 25-53) (ligand)
inhibition of TGF-β1-induced collagen in human dermal fibroblasts (BJ3 cells) (RXFP1 receptor [2]): 35%

B4: native human relaxin-3 (H3 relaxin) (ligand)
chain 1: DVLAGLSSSCCKWGCSKSEISSLC
chain 2: RAAPYGVRLCGREFIRAVIFTCGGSRW
modifications: disulfide (positions not given here); also: one intra-A-chain and two inter-chain disulphide bonds, places not given here
notes: Two-chain peptide; one intra-A-chain and two inter-chain disulphide bonds; also called native relaxin-3
pEC50 (M), cAMP accumulation in HEK-293 cells expressing RXFP1 (RXFP1 receptor [2]): 8.74 M (as -log10)
pEC50 (M), activation of RXFP4 (RXFP4 receptor [4]): 8.94 M (as -log10)

B5: analogue 14 (peptide)
chain 1: DVLAGLSSSACKWGASKSEISSLC
chain 2: RAAPYGVRLCGREFIRAVIFTCGGSRW
modifications: disulfide (positions not given here)
notes: Synthetic; no intra-A-chain disulphide, two inter-chain disulphides kept
pEC50 (M), inhibition of forskolin-induced cAMP, reporter gene assay in CHO-K1 cells expressing RXFP3 (RXFP3 receptor [7]): 7.9 M (as -log10)
pEC50 (M), cAMP accumulation in HEK-293 cells expressing RXFP1 (RXFP1 receptor [2]): 6.23 M (as -log10)
pKi (RXFP3 receptor [8]): 7.3 M (as -log10)

B7: human INSL5 (ligand)
chain 1: QDLQTLCCTDGCSMTDLSALC
chain 2: KESVRLCGLEYIRTVIYICASSRW
notes: mature; Native receptor ligand used as comparator at RXFP4; also called hINSL5; native INSL5
pEC50 (M), activation of RXFP4 (RXFP4 receptor [4]): 8.51 M (as -log10)
pIC50 (RXFP4 receptor [6]): 7.33 M (as -log10)

— US20140024592A1, “Modified Relaxin Polypeptides” (Howard Florey Institute of Experimental Physiology and …, priority 2010, published 2014)
